The source of these data is the Human Domainome abundance scans (Beltran et al. 2025).

± gives the uncertainty stated by the source.

B1: Friend leukemia integration 1 transcription factor, residues 116 to 197; numbered along this chain, Q01543 (parent)
chain: NMTTNERRVIVPADPTLWTQEHVRQWLEWAIKEYSLMEIDTSFFQNMDGKELCKMNKEDFLRATTLYNTEVLLSHLSYLRES

Variants of B1 are the subject of the data set. Kind of data set: abundance fitness (aPCA) (normalised: wild type 0, dead -1); higher = more abundant; growth selection in yeast, the domain comes from the species named. The note with it: Homo sapiens.
Turning to NMTTNERRVIVPADPTLWTQEHVRQWLEWAIKEYSLMEIDTSFFQNMDGKELCKMNKEDFLRATTLYNTERLLSHLSYLRES [V71R], the abundance fitness stood at 0.02 ± 0.062. Under NMTTNERRVIVPADPTLWTQEHVRQWLEWAIKEYSLMEIDQSFFQNMDGKELCKMNKEDFLRATTLYNTEVLLSHLSYLRES [T41Q] stands -0.076 ± 0.11. NMTKNERRVIVPADPTLWTQEHVRQWLEWAIKEYSLMEIDTSFFQNMDGKELCKMNKEDFLRATTLYNTEVLLSHLSYLRES [T4K]: the abundance fitness is -0.005 ± 0.1. Under NMTTNERRVIVPADPTLWTQEHVRQWLEWAIKSYSLMEIDTSFFQNMDGKELCKMNKEDFLRATTLYNTEVLLSHLSYLRES [E33S] stands -0.238 ± 0.073; under NMTTNERRVIVPADPTLWTQEHVRQWLEWAIKKYSLMEIDTSFFQNMDGKELCKMNKEDFLRATTLYNTEVLLSHLSYLRES [E33K], -0.021 ± 0.11; under NMTTNERRVIVPADPTLWTQLHVRQWLEWAIKEYSLMEIDTSFFQNMDGKELCKMNKEDFLRATTLYNTEVLLSHLSYLRES [E21L], -0.096 ± 0.073. Under NMTTNERRVIVPADPTLWTQVHVRQWLEWAIKEYSLMEIDTSFFQNMDGKELCKMNKEDFLRATTLYNTEVLLSHLSYLRES [E21V] stands -0.111 ± 0.11; under NMTTNERRVIVPADPTLWTQEHVRQWLEWAIKEYSLMEIDTSFFQNMDGDELCKMNKEDFLRATTLYNTEVLLSHLSYLRES [K50D], -0.093 ± 0.14. In the case of NMTTNERRVIVPADPTLWTQEHVRQWLEWAIKEYSLMEIDTSFFQNMDGYELCKMNKEDFLRATTLYNTEVLLSHLSYLRES [K50Y], the abundance fitness is 0.249 ± 0.23.

Take NMTTNERRVIVPADPTLWTQEHVRQWLEWAIKEYSLMEIDTSFFQNMDGMELCKMNKEDFLRATTLYNTEVLLSHLSYLRES [K50M]: the abundance fitness was -0.087 ± 0.12. The value for NMTTNERRVIVPADPTLWTQEHVRQWLEWAIKEYSLMEIDTSFFQNMDGLELCKMNKEDFLRATTLYNTEVLLSHLSYLRES [K50L] was -0.12 ± 0.072; that for NMTTNERRVIVPADPTLWTQEHVRQWLEWAIKEYSLAEIDTSFFQNMDGKELCKMNKEDFLRATTLYNTEVLLSHLSYLRES [M37A] was 0.003 ± 0.068; that for NMTTNERRVIVPADPTLWTQEHVRQWLEWAIKEYSLYEIDTSFFQNMDGKELCKMNKEDFLRATTLYNTEVLLSHLSYLRES [M37Y] was 0.059 ± 0.13. Under NMTTNERRVIVPADPTLWTQEHVRQWLEWAIKEYSLMEIDTSFFQSMDGKELCKMNKEDFLRATTLYNTEVLLSHLSYLRES [N46S] stands -0.087 ± 0.097; under NMTTNERRVIVPADPTLWTQEHVRQWLEWAIKEYSLMEIDTSFFQIMDGKELCKMNKEDFLRATTLYNTEVLLSHLSYLRES [N46I], -0.397 ± 0.13; under NMTTNERRVIVPADPTLWTQEHVRQWLEWAIKEYSLMEIDTSFFQNMDGKELSKMNKEDFLRATTLYNTEVLLSHLSYLRES [C53S], -0.213 ± 0.073. For the variant NMTTNNRRVIVPADPTLWTQEHVRQWLEWAIKEYSLMEIDTSFFQNMDGKELCKMNKEDFLRATTLYNTEVLLSHLSYLRES [E6N], the abundance fitness was -0.022 ± 0.17.

For the variant NMTTNMRRVIVPADPTLWTQEHVRQWLEWAIKEYSLMEIDTSFFQNMDGKELCKMNKEDFLRATTLYNTEVLLSHLSYLRES [E6M], the abundance fitness is -0.163 ± 0.15.

As for NMTTNIRRVIVPADPTLWTQEHVRQWLEWAIKEYSLMEIDTSFFQNMDGKELCKMNKEDFLRATTLYNTEVLLSHLSYLRES [E6I], the abundance fitness is -0.087 ± 0.15. The value for NMTTNERRVIVPADPTLWTQEHVRQWLEWAIKEYSLMEIDTSFFQNMDGKELCKMNKEDFKRATTLYNTEVLLSHLSYLRES [L61K] was -0.335 ± 0.17; that for NMTTNERRVIVPADPTLWTQEHVRQWLEWAIKEYSLMEIDTSFFQNMDGKELCKMNKEDFTRATTLYNTEVLLSHLSYLRES [L61T] was -0.025 ± 0.13. Under NMTTNERRVIVPADPTLWTQEHVRQWLEWAIKEYSLMEIDTSFFQNMDGKELCKMNKEDFDRATTLYNTEVLLSHLSYLRES [L61D] stands -0.449 ± 0.22; under NMTTNERRVIVPADPTLQTQEHVRQWLEWAIKEYSLMEIDTSFFQNMDGKELCKMNKEDFLRATTLYNTEVLLSHLSYLRES [W18Q], -0.891 ± 0.1; under NMTTNERRVIVPADPTLPTQEHVRQWLEWAIKEYSLMEIDTSFFQNMDGKELCKMNKEDFLRATTLYNTEVLLSHLSYLRES [W18P], -0.753 ± 0.097. The value for NMTTNERRVIVPADPTLWTQEHVHQWLEWAIKEYSLMEIDTSFFQNMDGKELCKMNKEDFLRATTLYNTEVLLSHLSYLRES [R24H] was -0.161 ± 0.31; that for NMTTNERRVIVPADPTLWTQEHVKQWLEWAIKEYSLMEIDTSFFQNMDGKELCKMNKEDFLRATTLYNTEVLLSHLSYLRES [R24K] was -0.09 ± 0.098. For the variant NMTTNERRVIVPADPTLWTQEHVRQWKEWAIKEYSLMEIDTSFFQNMDGKELCKMNKEDFLRATTLYNTEVLLSHLSYLRES [L27K], the abundance fitness was -0.708 ± 0.22.

Take NMTTNERRVIVPPDPTLWTQEHVRQWLEWAIKEYSLMEIDTSFFQNMDGKELCKMNKEDFLRATTLYNTEVLLSHLSYLRES [A13P]: the abundance fitness is 0.162 ± 0.065. The value for NMTTNERRVIVPADPTLWTQEHVRQWLEWAIKEYSLMCIDTSFFQNMDGKELCKMNKEDFLRATTLYNTEVLLSHLSYLRES [E38C] was -0.126 ± 0.16; that for NMTTNERRVIVPADPTLWTQEHVRQWLEWAIKEYSLMFIDTSFFQNMDGKELCKMNKEDFLRATTLYNTEVLLSHLSYLRES [E38F] was -0.329 ± 0.18. Take NMTTNERRVIVPADPTLWTQEHVRQSLEWAIKEYSLMEIDTSFFQNMDGKELCKMNKEDFLRATTLYNTEVLLSHLSYLRES [W26S]: the abundance fitness is -0.402 ± 0.13. In the case of NMTTNERRVIVPADPTLWTQEHVRQPLEWAIKEYSLMEIDTSFFQNMDGKELCKMNKEDFLRATTLYNTEVLLSHLSYLRES [W26P], the abundance fitness was -1.04 ± 0.26.

Consider NMTTNERRVIVPADPTLWTQEHVRQWLEWAIKEYSLMEIDTSFFQNMDGKELCKMNKEDFLRATTLYNTEVLGSHLSYLRES [L73G], for which the abundance fitness is -0.27 ± 0.084.
